Tested on: MS2 coat protein
Assay: apparent KD of MS2 coat protein; higher = weaker reporter binding
Settings: Eterna round: R107
Method in brief: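 With or without constant ligand, designed RNA switches in 100 mM Tris-HCl pH 7.5, 80 mM KCl and 4 mM MgCl2 were titrated with SNAP-549-labelled MS2 coat protein. Concentrations went up in twofold steps from 0.7 or 1.5 nM to 3 µM. The switches had been transcribed on-chip from Illumina sequencing clusters, and apparent KD is the per-design median of normalised cluster binding-curve fits.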

[1] = input ligand: theophylline 20 uM
[2] = input ligand: tryptophan 2.4 mM
[3] = input ligand: theophylline 2 mM

## UGACAUUGCUCAGAUACCAGACAUGAGGAUCACCCAUGUGCCAAAUAAACGUACAUAAAUGUCCCUUGGCAGCUGAGCAAUGUCU [TheoBX 11 #MS2Left #Theo2]
Input ligand: arginine 13.2 mM
  apparent KD of MS2 coat protein: 46.8 nM
[1]
  apparent KD of MS2 coat protein: 87.5 nM
[2]
  apparent KD of MS2 coat protein: 59.1 nM

## ACUAACUAUAGUGAUACCAGACGUACAUGAGGAUCACCCAUGUUACAUUCUUGGUUAAAAGUCCCUUGGCAGCACGAUAAGUUCG [JR_Nu_ExcTheophyB_Sub025]
Input ligand: arginine 13.2 mM
  apparent KD of MS2 coat protein: 9.7 nM
[1]
  apparent KD of MS2 coat protein: 11.2 nM
[2]
  apparent KD of MS2 coat protein: 10 nM

## UUUUUCGUAGGUUAUAGUUUAGAAACUGAAGGAGCGUGGUAAUACACAGGUAGGUCGCAGAUUUUACAUGAGGAUCACCCAUGUU [JR_ExcArginiA_Sub013]
Input ligand: arginine 13.2 mM
  apparent KD of MS2 coat protein: 23.5 nM
Input ligand: none
  apparent KD of MS2 coat protein: 24.1 nM
[1]
  apparent KD of MS2 coat protein: 27.6 nM
[3]
  apparent KD of MS2 coat protein: 25.1 nM
[2]
  apparent KD of MS2 coat protein: 22.7 nM

## GACCGAUUAUAGCACGAUUGUCUUGUGGAAGGAGCGCAGAGGGCUGCAGGUAGGUCGCCACAUGAGGAUCACCCAUGUCAGGAUA [Raanti]
Input ligand: arginine 13.2 mM
  apparent KD of MS2 coat protein: 4.57 nM
Input ligand: none
  apparent KD of MS2 coat protein: 60 nM
[1]
  apparent KD of MS2 coat protein: 66.6 nM
[3]
  apparent KD of MS2 coat protein: 59.1 nM
[2]
  apparent KD of MS2 coat protein: 46.6 nM

## UCGCUCUGGGUGGGAUCCGGAGAUGUGGAAGGAGCGCUGGUAACAGCAGGUAGGUCGCCAACGGACAUGAGGAUCACCCAUGUAC [Same State - Arginine A (Freestyle 17)]
Input ligand: arginine 13.2 mM
  apparent KD of MS2 coat protein: 25.2 nM
Input ligand: none
  apparent KD of MS2 coat protein: 37.3 nM
[1]
  apparent KD of MS2 coat protein: 40 nM
[3]
  apparent KD of MS2 coat protein: 44.2 nM
[2]
  apparent KD of MS2 coat protein: 26.7 nM

## GCUGUAAGUGCAGAUACCAGCAAGUGAGGUUUCAUAUGACAUGAGGAUCACCCAUGUAUCUGCCCUUGGCAGCUGCACUUACAGC [#28 Same State - Theophylline B]
Input ligand: arginine 13.2 mM
  apparent KD of MS2 coat protein: 17 nM
[1]
  apparent KD of MS2 coat protein: 24.2 nM
[2]
  apparent KD of MS2 coat protein: 21.7 nM

## CUUCGCAUAGGAAAACUAUGUGAAGAAAAUCGAGGACCGGUACGGCCGCCACUCGUCCUCAACAUGAGGAUCACCCAUGUAAUAA [Mat - Exclusion - Trytophan A - D6]
Input ligand: arginine 13.2 mM
  apparent KD of MS2 coat protein: 17.3 nM
[1]
  apparent KD of MS2 coat protein: 21.2 nM
[3]
  apparent KD of MS2 coat protein: 20.4 nM

## UUAAAUGUGACGGAUACCAGCGUGUUGUAGAACAUGAGGAUCACCCAUGUAGUGAUCAAGCGCCCUUGGCAGCUGGUAUGUUUGA [7.Z]
Input ligand: arginine 13.2 mM
  apparent KD of MS2 coat protein: 227 nM
[1]
  apparent KD of MS2 coat protein: 224 nM
[2]
  apparent KD of MS2 coat protein: 124 nM

## CGGUUUGUGAUGGAUACCAGCAGAGUGGCUGUUUAUCCUGACAUGAGGAUCACCCAUGUGUGCCCUUGGCAGCUGUUGUGGGCUG [8.aB]
Input ligand: arginine 13.2 mM
  apparent KD of MS2 coat protein: 85.8 nM
Input ligand: none
  apparent KD of MS2 coat protein: 86.8 nM
[1]
  apparent KD of MS2 coat protein: 137 nM
[3]
  apparent KD of MS2 coat protein: 108 nM
[2]
  apparent KD of MS2 coat protein: 74.4 nM

## AGCAUGUUAGCAGAUACCAGACGUUUUAUGAUCCAUGUAACAUGAGGAUCACCCAUGUAAGUCCCUUGGCAGCUGAAAUAAUGCA [JR_SSTheophyB_Sub011]
Input ligand: arginine 13.2 mM
  apparent KD of MS2 coat protein: 75.7 nM
[1]
  apparent KD of MS2 coat protein: 187 nM
[2]
  apparent KD of MS2 coat protein: 127 nM

## AUAGUCUAGAGUGAUACCAGACUACAUGAGGAUCACCCAUGUAUCUUUUGGUUAUCAUGUGUCCCUUGGCAGCACGCAUGUAUAG [JR_ExcTheophyB_Sub013]
Input ligand: arginine 13.2 mM
  apparent KD of MS2 coat protein: 11.3 nM
[1]
  apparent KD of MS2 coat protein: 12.4 nM
[2]
  apparent KD of MS2 coat protein: 9.94 nM

## AGUCUGGACUCGGCCGCCACUCGUGAUGCUUUGGCACAUGAGGAUCACCCAUGUGGUCGGCCUUAGAGGACCGGGAGUACCAGUC [Ariaredle]
Input ligand: arginine 13.2 mM
  apparent KD of MS2 coat protein: 52.3 nM
[1]
  apparent KD of MS2 coat protein: 84.9 nM
[3]
  apparent KD of MS2 coat protein: 63.5 nM

## UUCGUUUGCGGAAGGAGCGACGGACAUCGGUGAACGACGCACAUGAGGAUCACCCAUGUACGUCAGGUAGGUCGCCGCUAAGAGU [Tibira]
Input ligand: arginine 13.2 mM
  apparent KD of MS2 coat protein: 15.5 nM
Input ligand: none
  apparent KD of MS2 coat protein: 18 nM
[1]
  apparent KD of MS2 coat protein: 22.3 nM
[3]
  apparent KD of MS2 coat protein: 25.2 nM
[2]
  apparent KD of MS2 coat protein: 19.8 nM

## CCUCAAUAGACGGCCGCCACUGAGACAUGAGGAUACAUGAGGAUCACCCAUGUGGGUGUGUCACGCAGGACCGGGUCAAGACCCG [Tryp B SS t2]
Input ligand: arginine 13.2 mM
  apparent KD of MS2 coat protein: 183 nM
[1]
  apparent KD of MS2 coat protein: 497 nM
[3]
  apparent KD of MS2 coat protein: 794 nM

## GGCCCUGCGGGCGCCCGCAGGGCCGCGGAUACCAGCGAGGUCCAUCGCCCUUGGCAGCCGAACAUGAGGAUCACCCAUGUCGGUG [Same State - Theophylline A Attempt #8 (HarryS)]
Input ligand: arginine 13.2 mM
  apparent KD of MS2 coat protein: 10.6 nM
Input ligand: none
  apparent KD of MS2 coat protein: 12.9 nM
[1]
  apparent KD of MS2 coat protein: 20.4 nM
[3]
  apparent KD of MS2 coat protein: 89.6 nM
[2]
  apparent KD of MS2 coat protein: 12.9 nM

## CCUAUCCAGUCGGCCGCCACUGACCAUUUGGAACAGUGGGUGAAUACAUGAGGAUCACCCAUGUACAGGACCGGGACUGUAUAGG [Ex Tryptophan B 21]
Input ligand: arginine 13.2 mM
  apparent KD of MS2 coat protein: 14.4 nM
Input ligand: none
  apparent KD of MS2 coat protein: 11.2 nM
[1]
  apparent KD of MS2 coat protein: 13.1 nM
[3]
  apparent KD of MS2 coat protein: 10.4 nM
[2]
  apparent KD of MS2 coat protein: 27.9 nM

## UGUAUUGGAAACAGUACUAGUGAUCCGGUCCGAGGACCGGUACGGCCGCCACUCGAUAUAAAUAAACAUGAGGAUCACCCAUGUA [Ex Tryptophan A 13]
Input ligand: arginine 13.2 mM
  apparent KD of MS2 coat protein: 23.3 nM
[1]
  apparent KD of MS2 coat protein: 17.1 nM
[3]
  apparent KD of MS2 coat protein: 18 nM

## GGCGUCGGGCGAAGGAGCGUGAAGACAUGAGGAUCACCCAUGUAGAGGCCCGGACAGGGUUCGCAGGUAGGUCGCGCGCGGUGCC [#1 Same State - Arginine B Attempt #7 (HarryS)]
Input ligand: arginine 13.2 mM
  apparent KD of MS2 coat protein: 17.5 nM
Input ligand: none
  apparent KD of MS2 coat protein: 13.7 nM
[1]
  apparent KD of MS2 coat protein: 23.2 nM
[3]
  apparent KD of MS2 coat protein: 19.5 nM
[2]
  apparent KD of MS2 coat protein: 16.9 nM

— the supplement of paper PMC9170038
